Series [1] addresses T1, His-GapR (Caulobacter crescentus (NA1000?)) (UniProt B8H4R9).
T1 sequence: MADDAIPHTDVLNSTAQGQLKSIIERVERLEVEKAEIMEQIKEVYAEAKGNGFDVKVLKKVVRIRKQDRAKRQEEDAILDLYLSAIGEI
The experiment in a line: EMSA.

The next series concerns the target T2, His-GapR (Caulobacter crescentus, UniProt B8H4R9 1-89).
T2 sequence: T1 sequence
Nature of the series: EMSA.

The values below come from publication PMC5587793.

For Cori DNA (EMSA of Figure S6), in series [1], the Kd was 10 nM. That is a double-digit nanomolar value.

B1: CoriUP oligonucleotide (dsDNA)
DNA 1: GCAGGGCAAGTGGTTAAGCATATGTTAACGGATGATCCACAGG
DNA 2: CCTGTGGATCATCCGTTAACATATGCTTAACCACTTGCCCTGC
modifications: 3 bp up-replication mutation
Turning to B1, the binding result with His-GapR is listed as “binds”.
